Earlier results on one substance are cited in publication PMC5302535.

The term Kd denotes the equilibrium constant for the complex coming apart.

For the data set, the target named is transferrin receptor (TfR) (Homo sapiens) (UniProt P02786).
transferrin receptor (TfR) (Homo sapiens), sequence (P02786 89-760): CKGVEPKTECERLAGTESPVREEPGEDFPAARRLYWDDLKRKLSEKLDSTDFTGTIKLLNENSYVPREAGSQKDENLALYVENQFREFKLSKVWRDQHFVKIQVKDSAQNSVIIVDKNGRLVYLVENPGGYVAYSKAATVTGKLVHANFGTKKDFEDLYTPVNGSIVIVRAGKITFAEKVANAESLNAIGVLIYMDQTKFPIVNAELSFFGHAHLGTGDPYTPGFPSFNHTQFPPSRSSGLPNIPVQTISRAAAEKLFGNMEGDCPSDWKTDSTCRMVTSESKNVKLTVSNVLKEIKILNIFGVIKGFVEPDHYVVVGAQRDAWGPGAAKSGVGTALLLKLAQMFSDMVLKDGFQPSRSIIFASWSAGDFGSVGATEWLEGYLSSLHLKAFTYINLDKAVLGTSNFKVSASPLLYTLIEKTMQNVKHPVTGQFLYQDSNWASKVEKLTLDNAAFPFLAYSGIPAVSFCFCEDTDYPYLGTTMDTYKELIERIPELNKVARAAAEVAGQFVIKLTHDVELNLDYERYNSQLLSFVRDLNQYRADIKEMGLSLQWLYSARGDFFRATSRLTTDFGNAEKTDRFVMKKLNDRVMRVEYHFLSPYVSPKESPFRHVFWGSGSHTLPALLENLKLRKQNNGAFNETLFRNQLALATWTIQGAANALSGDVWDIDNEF

On to T7 peptide, for which the Kd was 10 nM.
